The text below walks through data of US20180251489A1.

This test deals with mucosa-associated lymphoid tissue lymphoma translocation protein 1 (UniProt Q9UDY8). Briefly: enzyme inhibition assay, 100 nM MALT1.
mucosa-associated lymphoid tissue lymphoma translocation protein 1, sequence (Q9UDY8 340-789): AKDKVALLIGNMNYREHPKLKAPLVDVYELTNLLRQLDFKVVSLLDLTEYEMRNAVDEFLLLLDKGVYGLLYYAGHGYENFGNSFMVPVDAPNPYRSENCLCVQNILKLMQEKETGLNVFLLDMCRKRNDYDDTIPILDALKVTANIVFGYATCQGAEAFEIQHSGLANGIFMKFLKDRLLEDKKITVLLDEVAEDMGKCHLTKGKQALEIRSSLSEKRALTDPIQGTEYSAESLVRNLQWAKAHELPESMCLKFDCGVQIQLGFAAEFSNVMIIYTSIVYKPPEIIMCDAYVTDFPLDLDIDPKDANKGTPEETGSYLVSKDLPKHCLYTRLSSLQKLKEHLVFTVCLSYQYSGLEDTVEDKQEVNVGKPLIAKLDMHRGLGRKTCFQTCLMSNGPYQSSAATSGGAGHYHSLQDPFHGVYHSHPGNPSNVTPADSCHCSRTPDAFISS
In general, Ki refers to the equilibrium dissociation constant of an inhibitor or competing ligand from its target. A high value points to lower affinity. “N-((S)-1-((S)-2-(((S)-1-fluoro-6-guanidino-2-oxohexan-3-yl)carbamoyl)pyrrolidin-1-yl)-3-methyl-1-oxobutan-2-yl)-5-phenylthiazole-2-carboxamide (peptide)” returned an inhibition constant Ki of 121 nM.
As for “(S)-1-(([1,1′-biphenyl]-4-carbonyl)-L-valyl)-N-((S)-1-fluoro-6-guanidino-2-oxohexan-3-yl)pyrrolidine-2-carboxamide (peptide)”, the figure is 30 nM.
As for “3-Chlorobenzyl ((S)-1-((S)-2-(((S)-1-fluoro-6-guanidino-2-oxohexan-3-yl)carbamoyl)pyrrolidin-1-yl)-3-methyl-1-oxobutan-2-yl)carbamate (peptide)”, the Ki was 22 nM.
Substance “(S)-1-((3-cyanobenzoyl)-L-valyl)-N-((S)-1-fluoro-6-guanidino-2-oxohexan-3-yl)pyrrolidine-2-carboxamide (peptide)” gave an inhibition constant Ki of 39 nM.
“(S)-N-((S)-1-Fluoro-6-guanidino-2-oxohexan-3-yl)-1-((4-isopropylbenzoyl)-L-valyl)pyrrolidine-2-carboxamide (peptide)” showed an inhibitory constant (Ki) of 22 nM.
As to “(S)-1-((4-Cyanobenzoyl)-L-valyl)-N-((S)-1-fluoro-6-guanidino-2-oxohexan-3-yl)pyrrolidine-2-carboxamide (peptide)”, the inhibitory constant (Ki) came to 60 nM.
The result for “(S)-1-((2-(3-Bromophenyl)acetyl)-L-valyl)-N-((S)-1-fluoro-6-guanidino-2-oxohexan-3-yl)pyrrolidine-2-carboxamide (peptide)” reads 46 nM.
For “(S)-N-((S)-1-fluoro-6-guanidino-2-oxohexan-3-yl)-1-((3-(4-methylpiperazin-1-yl)benzoyl)-L-valyl)pyrrolidine-2-carboxamide (peptide)”, the Ki worked out at 175 nM.
In turn, “Benzyl ((S)-1-((S)-2-(((S)-1-fluoro-6-guanidino-2-oxohexan-3-yl)carbamoyl)pyrrolidin-1-yl)-3-methyl-1-oxobutan-2-yl)(methyl)carbamate (peptide)” yielded a Ki of 808 nM.
“(S)-N-((S)-1-Fluoro-6-guanidino-2-oxohexan-3-yl)-1-((3-phenylpropanoyl)-L-valyl)pyrrolidine-2-carboxamide (peptide)”: the Ki was found to be 43 nM.
“(S)-1-((S)-2-(4-bromobenzamido)-2-cyclohexylacetyl)-N-((S)-1-fluoro-6-guanidino-2-oxohexan-3-yl)pyrrolidine-2-carboxamide (peptide)”: the Ki was found to be 45 nM.
In turn, “Benzyl ((S)-1-cyclohexyl-2-((S)-2-(((S)-1-fluoro-6-guanidino-2-oxohexan-3-yl)carbamoyl)piperidin-1-yl)-2-oxoethyl)carbamate (peptide)” gave an inhibitory constant (Ki) of 37 nM.
In turn, “4-Chlorobenzyl ((S)-1-((S)-2-(((S)-1-fluoro-6-guanidino-2-oxohexan-3-yl)carbamoyl)pyrrolidin-l-yl)-3-methyl-1-oxobutan-2-yl)carbamate (peptide)” gave a Ki of 32 nM.
As for “(S)-N-((S)-1-Fluoro-6-guanidino-2-oxohexan-3-yl)-1-((3-methoxybenzoyl)-L-valyl)pyrrolidine-2-carboxamide (peptide)”, the figure is 75 nM.
As for “Benzyl ((S)-1-((S)-2-(((S)-1-fluoro-6-guanidino-2-oxohexan-3-yl)carbamoyl)pyrrolidin-1-yl)-3-methyl-1-oxobutan-2-yl)carbamate 2,2,2-trifluoroacetate (peptide)”, the Ki was 40 nM.
The result for “(S)-1-((4-Bromobenzoyl)-L-leucyl)-N-((S)-1-fluoro-6-guanidino-2-oxohexan-3-yl)pyrrolidine-2-carboxamide (peptide)” reads 182 nM.
